From article PMC9935389, “Structural insights into the regulation of Cas7-11 by TPR-CHAT”

Molecular target: DmCas7-11;DmTPR-CHAT full-length (Desulfonema magnum;Desulfonema magnum, UniProt A0A975GRY4;A0A975BRS1 1-1785;1-822, |)
Assay: cryo-EM; Craspase complex with full TPR-CHAT, 3.2 A; PDB 7ZOL or 7ZOQ (assignment not stated); EMSA: 32.5 mM HEPES-NaOH pH 7.5, 100 mM NaCl, 2.5 mM DTT, 1 U/ul RNase inhibitor, 50 nM RNA, 30 min on ice; no Mg2+ listed
Settings: protein: recombinant;recombinant; tags: 6xHis (N-terminal);Twin-Strep (N-terminal); copies: 1;1; single strand

Chain of DmCas7-11;DmTPR-CHAT full-length (chain, as listed by the source |, chain 1 of 2): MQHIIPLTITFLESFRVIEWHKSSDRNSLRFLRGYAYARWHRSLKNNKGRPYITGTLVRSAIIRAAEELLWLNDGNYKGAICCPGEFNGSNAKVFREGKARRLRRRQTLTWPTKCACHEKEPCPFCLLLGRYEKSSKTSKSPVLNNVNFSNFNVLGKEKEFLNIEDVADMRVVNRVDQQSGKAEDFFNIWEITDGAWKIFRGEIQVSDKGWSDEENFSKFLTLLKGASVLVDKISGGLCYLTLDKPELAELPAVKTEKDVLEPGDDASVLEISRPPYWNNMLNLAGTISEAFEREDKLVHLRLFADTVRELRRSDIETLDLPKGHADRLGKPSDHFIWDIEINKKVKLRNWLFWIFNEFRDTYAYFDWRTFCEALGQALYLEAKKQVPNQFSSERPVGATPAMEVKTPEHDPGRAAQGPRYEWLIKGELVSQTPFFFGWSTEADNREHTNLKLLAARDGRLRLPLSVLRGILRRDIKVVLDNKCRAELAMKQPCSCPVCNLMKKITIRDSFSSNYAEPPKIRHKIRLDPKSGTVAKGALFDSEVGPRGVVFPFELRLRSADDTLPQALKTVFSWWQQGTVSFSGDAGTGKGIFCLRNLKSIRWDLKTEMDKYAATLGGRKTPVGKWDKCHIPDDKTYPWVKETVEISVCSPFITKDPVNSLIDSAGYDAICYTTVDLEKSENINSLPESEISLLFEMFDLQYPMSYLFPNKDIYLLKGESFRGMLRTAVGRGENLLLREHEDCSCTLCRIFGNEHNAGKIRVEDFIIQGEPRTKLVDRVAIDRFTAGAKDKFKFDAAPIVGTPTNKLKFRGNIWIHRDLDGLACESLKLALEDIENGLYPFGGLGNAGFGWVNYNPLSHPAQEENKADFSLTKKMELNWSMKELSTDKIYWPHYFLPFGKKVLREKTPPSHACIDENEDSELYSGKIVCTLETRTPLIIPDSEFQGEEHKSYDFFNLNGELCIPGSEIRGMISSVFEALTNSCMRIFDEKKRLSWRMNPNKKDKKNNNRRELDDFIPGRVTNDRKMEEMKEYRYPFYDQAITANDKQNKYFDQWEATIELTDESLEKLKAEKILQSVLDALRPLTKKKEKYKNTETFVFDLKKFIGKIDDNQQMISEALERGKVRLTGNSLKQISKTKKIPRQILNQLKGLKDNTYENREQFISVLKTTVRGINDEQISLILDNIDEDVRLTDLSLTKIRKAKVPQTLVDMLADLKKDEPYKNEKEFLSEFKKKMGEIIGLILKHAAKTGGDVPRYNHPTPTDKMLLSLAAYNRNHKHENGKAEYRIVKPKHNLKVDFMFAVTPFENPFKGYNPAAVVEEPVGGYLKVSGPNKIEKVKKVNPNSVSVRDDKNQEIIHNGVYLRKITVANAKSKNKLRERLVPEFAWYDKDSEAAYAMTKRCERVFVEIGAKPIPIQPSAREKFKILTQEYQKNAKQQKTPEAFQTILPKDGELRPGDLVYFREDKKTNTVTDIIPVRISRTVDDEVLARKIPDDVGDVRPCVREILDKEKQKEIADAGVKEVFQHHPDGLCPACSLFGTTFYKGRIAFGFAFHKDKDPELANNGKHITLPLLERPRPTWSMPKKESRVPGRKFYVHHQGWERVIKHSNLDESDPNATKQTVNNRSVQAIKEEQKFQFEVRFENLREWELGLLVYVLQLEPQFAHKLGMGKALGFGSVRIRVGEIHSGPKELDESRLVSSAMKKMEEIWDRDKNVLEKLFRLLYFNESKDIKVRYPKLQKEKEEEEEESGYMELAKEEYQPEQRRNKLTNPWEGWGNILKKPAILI
Chain of DmCas7-11;DmTPR-CHAT full-length (chain, as listed by the source |, chain 2 of 2): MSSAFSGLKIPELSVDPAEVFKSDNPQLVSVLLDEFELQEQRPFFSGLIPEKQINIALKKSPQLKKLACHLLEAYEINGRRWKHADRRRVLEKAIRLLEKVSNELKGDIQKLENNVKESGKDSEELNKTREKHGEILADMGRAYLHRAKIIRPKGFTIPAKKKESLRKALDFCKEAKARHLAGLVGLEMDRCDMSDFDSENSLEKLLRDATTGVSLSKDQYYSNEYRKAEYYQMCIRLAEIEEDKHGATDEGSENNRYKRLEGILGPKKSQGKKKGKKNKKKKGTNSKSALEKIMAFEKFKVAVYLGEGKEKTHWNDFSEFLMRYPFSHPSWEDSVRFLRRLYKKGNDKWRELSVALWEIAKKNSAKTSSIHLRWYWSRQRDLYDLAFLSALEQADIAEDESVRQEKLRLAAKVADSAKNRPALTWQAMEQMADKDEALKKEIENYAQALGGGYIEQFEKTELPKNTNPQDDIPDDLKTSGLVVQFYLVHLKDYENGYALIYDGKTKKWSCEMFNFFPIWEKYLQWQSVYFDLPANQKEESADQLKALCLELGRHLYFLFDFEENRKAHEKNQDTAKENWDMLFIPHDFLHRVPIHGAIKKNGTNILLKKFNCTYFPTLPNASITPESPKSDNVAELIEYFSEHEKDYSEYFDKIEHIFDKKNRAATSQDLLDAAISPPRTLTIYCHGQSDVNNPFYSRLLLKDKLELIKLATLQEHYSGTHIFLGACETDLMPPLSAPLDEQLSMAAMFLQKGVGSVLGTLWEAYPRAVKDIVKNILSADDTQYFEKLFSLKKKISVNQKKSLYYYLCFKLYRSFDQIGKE

**Q.** Does UUAUGUGAUGGAACCUCUCCGGAUAAUUCUAUCUCUUCUG (ssRNA) [crRNA (13+ nt 5' handle, spacer C15-G40 modelled)] bind?
**A.** Result: binds
